Data taken from ChEMBL document CHEMBL2074163, “Identification of monocarboxylate transporter 8 as a specific thyroid hormone transporter” (J Biol Chem, 2003).

Legend:
Format in all cases: functional, cell-based
Conditions in all cases: Oocyte
[1] = substrate: NC(Cc1ccc(Oc2cc(I)c(O)c(I)c2)c(I)c1)C(=O)O; assay: (§1) TP_TRANSPORTER: uptake in Xenopus laevis oocytes
[2] = substrate: N[C@@H](Cc1cc(I)c(Oc2cc(I)c(O)c(I)c2)c(I)c1)C(=O)O; assay: as §1
[3] = substrate: N[C@@H](Cc1ccc(Oc2cc(I)c(O)c(I)c2)c(I)c1)C(=O)O; assay: as §1

B1: Monocarboxylate transporter 8 (Rattus norvegicus), Q8K1P8 (protein)
chain: MALPSPASEEAEGPCQEANQEYQEPVCSPVPEPEPEPEPEPEPEPEPVPVPPPEPQPEPEPQPLPDPAPLPVLGFEAEPVQEPEPTPTVETRGTARGFQPPEGGFGWIVVFAATWCNGSIFGIHNSVGILYSMLLEEEKEKNRQVEFQAAWVGALAMGMIFFCSPIVSIFTDRLGCRITATTGAAVAFIGLHTSSFTSSLSLRYFTYGILFGCGCSFAFQPSLVILGHYFQRRLGLANGVVSAGSSIFSMSFPFLIKMLGDRIKLAQTFQVLSTFMFVLTLLSLTYRPLLPSSQDTPSKRGAHTLRQRFLVQFRKYFNMRVFRQRTYRIWAFGIAAAALGYFVPYVHLMKYVEDKFKEIKETWVLLVCIGATSGLGRLVSGHISDSIPGLKKIYLQVLSFLLLGLMSMMIPLCRDFGGLIVVCLFLGLCDGFFITIMAPIAFELVGPMQASQAIGYLLGMMALPMIAGPPIAGLLRNCFGNYHVAFYFAGVPPIIGAVILFFVPLMHQRMFKKEQRESSKDKMLSHDPDPNGELLPGSPTPEEPI
[1]
  Km: 2.2 µM
[2]
  Km: 4.7 µM
[3]
  Km: 4 µM
